Molecular target: purified bovine brain tubulin (bovine) (UniProt Q6B856)
Assay: co-sedimentation; constant Chro-CTD (10 µg) with 0.125–2.5 µM taxol-stabilized microtubules from bovine brain tubulin; bound fraction in pellets by densitometry of immunoblots; Kd from a Lineweaver-Burk plot; three independent experiments

B1: Chro-CTD (329–926), COOH-terminal domain of Chromator, GST-fusion protein (domain or fragment)
chain: AMDAFKQWVNETVAGDGSSSPSSANEDESSTEQEWPPSSGAIKRKLNNTDSSLEGSGLNDSMDLEDLEEDLPSHTVKRLKNGGSSVQLNKPRIQSTEKQQTKINGNSTVVSPLTEQKMGEIIYTEDSTSSGMFRKPEMPNTINLKKEKPECPVRYLSRSEVGSSTRGVFRVENSEAPAPVSPAPVPQKVIAAPPAAGIAKRLPMARPAHSGANSPITVGQRQHALRTPGHGPVTAALHRRPGVGGASHVRQNLQQAPGRAHPGGRVLARAGVGTPQHRQQVQTPQGAKAVTPEQKILQLSKSGDLKVTRKVVTREELLAQRSAQARQRQALSQQQSSQQQKATPARQRIVSKSTIQPTPLQMELEEEIHQHQAQLCPITGKLIGQEETQLQMEQEQQQEQQREQLEAAAQALLGSDQQVLTNEDGSALLVRGEDGTVYQVAGKNAEGQTILVTQGPDGEQQFAYVAAAEGEDQDVLSLDHAVAEAVQAGEQVESHGVGAATADGEQILVSMTEEELAQHQVLQQAEASAAGTGTPPTAQIHITTSDSDGTESQIPAEVVQADLPSPGGTRRVVLLLQDGTFMMTEMHEDQFKTLNIPT
Kd: 0.23 µM
